According to patent US20230212304A1 (BIOSION, published 2023):
Read-outs that look alike come from different tables or passages of the source.

T1: recombinant human CTLA4 protein with human IgG1 Fc tag at the C-terminus (Acro biosystems, Cat#CT4-H5255) (human, UniProt P16410 37-162)
T1 construct: bought protein; also called human CTLA4-Fc; CTLA4-Fc; not shown: human IgG1 Fc tag at the C-terminus
T1 sequence (looked up): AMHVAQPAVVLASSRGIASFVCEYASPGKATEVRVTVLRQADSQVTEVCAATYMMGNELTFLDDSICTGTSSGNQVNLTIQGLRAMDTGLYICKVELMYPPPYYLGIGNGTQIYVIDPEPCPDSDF

T2: recombinant human CTLA4-his protein (Acro biosystems, Cat#CT4-H5229) (human, UniProt P16410 37-162)
T2 construct: bought recombinant protein; not shown: his tag
T2 sequence (looked up): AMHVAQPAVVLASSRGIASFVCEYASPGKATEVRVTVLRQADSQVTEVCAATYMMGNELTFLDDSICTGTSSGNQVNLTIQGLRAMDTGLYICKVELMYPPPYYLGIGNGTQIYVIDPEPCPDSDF

T3: cynomolgus monkey CTLA4-his protein (Acro biosystems, Cat#CT4-C5227) (cynomolgus monkey, UniProt G7PL88 36-161)
T3 construct: bought recombinant protein; also called Cynomolgus CTLA4-his; not shown: his tag
T3 sequence: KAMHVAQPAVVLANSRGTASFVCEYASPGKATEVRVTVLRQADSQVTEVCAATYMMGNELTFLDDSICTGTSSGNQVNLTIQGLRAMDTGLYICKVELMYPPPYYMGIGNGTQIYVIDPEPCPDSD


What was measured:
[1] = target: T1, recombinant human CTLA4 protein with …; experiment: competitive ELISA: antibody pre-mixed with biotin human CTLA4-Fc, added to plate coated with the benchmark; competitor: coated Yervoy
Description: (§1) Plates were washed once with wash buffer, blocked with 200 µl PBST with 5% w/v non-fatty milk, incubated for 2 hours at 37° C., and washed 4 times.
(§2) After incubation at 37° C. for 40 minutes, plates were washed 4 times again using wash buffer. Then the plates were added and incubated with 100 µl/well streptavidin conjugated HRP (1:10000 dilution in PBST, Jackson Immuno Research, Cat#016-030-084, 100 µl/well) for 40 minutes at 37° C. Plates were finally washed using wash buffer. Finally, TMB was added and the reaction was stopped using 1M H₂SO₄, and the absorbance of the each well was read on a microplate reader using dual wavelength mode with 450 nm for TMB and 630 nm as the reference wavelength, then the OD (450-630) values were plotted against antibody concentration. Data was analyzed using Graphpad Prism software and IC₅₀ values were reported.
(§3) In the capture ELISA assay, the 96-well micro plates were coated with 2 µg/ml goat anti-human IgG (AffiniPure Goat Anti-Human IgG, F(ab′)₂ fragment specific, Jackson Immunoresearch, Cat#109-005-097) instead of the goat anti-mouse IgG F(ab′)₂ fragment, 100 µl/well.

[2] = target: T1, recombinant human CTLA4 protein with …; experiment: capture ELISA (plate coated with goat anti-human IgG F(ab')2 per paragraph 181), biotin human CTLA4-Fc, streptavidin-HRP, OD(450-630)
Description: Plates were washed once with wash buffer (PBS+0.05% v/v Tween-20, PBST) and then blocked with 200 µl/well blocking buffer (PBST with 5% w/v non-fatty milk) for 2 hours at 37° C. […] After a final wash, plates were incubated with 100 µl/well substrate TMB (Innoreagents, Cat#TMB-S-002). The reaction was stopped in 15 minutes at room temperature with 50 µl/well 1M H₂SO₄, and the absorbance of the each well was read on a microplate reader using dual wavelength mode with 450 nm for TMB and 630 nm as the reference wavelength, then the OD (450-630) values were plotted against antibody concentration. Data was analyzed using Graphpad Prism software and EC₅₀ values were reported.
as §3

[3] = target: T1, recombinant human CTLA4 protein with …; experiment: cell-based or functional assay
[4] = target: T1, recombinant human CTLA4 protein with …; experiment: cell based blocking FACS: antibody pre-mixed with human CTLA4-Fc (1 ug/mL), added to Daudi cells; blocked ligands: cell surface CD80/CD86
Description: (§4) Daudi cells were harvested from cell culture flasks at the log phase, washed twice and re-suspended in PBS containing 2% v/v Fetal Bovine Serum (FACS buffer). […] Cells were washed twice and re-suspended in FACS buffer. Fluorescence was measured using a Becton Dickinson FACS Canto II-HTS equipment. Data was analyzed using Graphpad Prism software and IC₅₀ values were reported.

[5] = target: T1, recombinant human CTLA4 protein with …; experiment: capture ELISA: antibody captured on anti-mouse IgG F(ab')2 coated plate, biotin human CTLA4-Fc 26 ng/ml, streptavidin-HRP, OD(450-630)
[6] = target: T1, recombinant human CTLA4 protein with …; experiment: competitive ELISA: antibody pre-mixed with biotin human CTLA4-Fc (65 ng/ml), added to plate coated with the benchmark; competitor: coated Yervoy
Description: as §1, §2

[7] = target: T1, recombinant human CTLA4 protein with …; experiment: capture ELISA: antibody captured on coated plate (anti-human IgG Fc for the chimeric antibodies), biotin human CTLA4-Fc, streptavidin-HRP, OD(450-630)
[8] = target: T1, recombinant human CTLA4 protein with …; experiment: cell-based or functional assay; remark: listed apart in the source
[9] = target: T1, recombinant human CTLA4 protein with …; experiment: cell based blocking FACS: antibody pre-mixed with human CTLA4-Fc, added to Daudi cells; blocked ligands: cell surface CD80/CD86
[10] = target: T2, recombinant human CTLA4-his protein …; experiment: SPR, Biacore T200; antibody captured, CTLA4-his as analyte
Description: (§5) Un-reacted moieties on the biosensor surface were blocked with ethanolamine. […] The antigen-antibody association kinetics was followed for 2 minutes and the dissociation kinetics was followed for 10 minutes. The association and dissociation curves were fit to a 1:1 Langmuir binding model using BIAcore evaluation software.

[11] = target: T3, cynomolgus monkey CTLA4-his protein …; experiment: as above
Description: as §5

[12] = target: T1, recombinant human CTLA4 protein with …; experiment: cell based blocking FACS: antibody pre-mixed with human CTLA4-Fc, added to Daudi cells; blocked ligands: cell surface CD80/CD86; remark: listed apart in the source
Description: as §4

[13] = target: T2, recombinant human CTLA4-his protein …; experiment: BLI, Octet; antibody at 5 ug/ml on AHC sensor, CTLA4-his as analyte
Description: (§6) Briefly, AHC biosensors (anti-human IgG Fc capture, from ForteBio) were presoaked with 10 mM glycine (pH 1.5) for 3 seconds, and then dipped in a well with running buffer (0.5% w/v BSA in PBST) for 3 seconds, the soaking and dipping steps were repeated for three times. […] A new baseline was run for 180 seconds in another well with running buffer. […] Finally, sensors were presoaked with 10 mM glycine (pH 1.5) for 3 seconds, and then were dipped in a well with running buffer for 3 seconds, the soaking and dipping steps repeated for three times. The association and dissociation curves were fit to a 1:1 Langmuir binding model using ForteBio Data Analysis 8.1.

[14] = target: T2, recombinant human CTLA4-his protein …; experiment: SPR, Biacore; antibody captured on anti-human IgG CM5 chip, CTLA4-his as analyte
Description: as §5, with “software. […]” for “software.”

[15] = target: T3, cynomolgus monkey CTLA4-his protein …; experiment: as above
Description: as §5, with “software. […]” for “software.”

[16] = target: T2, recombinant human CTLA4-his protein …; experiment: BLI, Octet RED96; antibody on AHC sensor, CTLA4-his as analyte
Description: as §6

[17] = target: T2, recombinant human CTLA4-his protein …; experiment: BLI, Octet; antibody from cell supernatant on AHC sensor, CTLA4-his as analyte
Description: as §6

| Binder | IC50 [1] [nM] | EC50 [2] [nM] | EC50 [7] [nM] | EC50 of IL-2 release (GS-J1 T cells + GS-C1/CD80 cells + human CTLA4-Fc, IL-2 HTRF) [8] [nM] | IC50 [9] [nM] | IC50 [12] [nM] | Kd [14] [nM] | koff [14] [s⁻¹] | kon [14] [M⁻¹ s⁻¹] | Kd [15] [nM] | koff [15] [s⁻¹] | kon [15] [M⁻¹ s⁻¹] | further results |
| --- | --- | --- | --- | --- | --- | --- | --- | --- | --- | --- | --- | --- | --- |
| mouse anti-CTLA4 monoclonal antibody D1D5 (antibody, V domains shown, mouse mAb purified from hybridoma supernatant) VH: EVKLVESGGGLVKPGGSLKLSCAASGFTFSDYGMAWVRQAPGKGPEWVAFISNLAYSVYYADTETGRFTISREDAKNTLYLEMSSLRSEDTAMYYCARSGLPYAMDYWGQGTSVTVSS VL: DIQMTQTTSSLSASLGDRVTISCRASQDISNYLNWYQQKPDGTVKLLIYYISRLHSGVPSRFSGSGSGTDFSLTISNLEQEDIATYFCQQGRMLPWTFGGGTRLEIK | 5.75 | 0.778 | 0.632 | 42.3 | 9.67 | 5.82 | – | – | – | – | – | – | EC50 of IL-2 release (GS-J1 T cells + GS-C1/CD80 cells + human CTLA4-Fc, IL-2 HTRF) [3]: 37.5 nM; IC50 [4]: 4.77 nM; EC50 [5]: 0.103 nM; IC50 [6]: 0.646 nM; Kd [10]: 1.89 nM; koff [10]: 0.000276 s⁻¹; kon [10]: 146000 M⁻¹ s⁻¹; Kd [11]: 4.67 nM; koff [11]: 0.00047 s⁻¹; kon [11]: 101000 M⁻¹ s⁻¹ |
| chimeric D1D5 anti-CTLA4 antibody (antibody, human IgG4 S228P, kappa, V domains shown, mouse variable domains on human IgG4/kappa, made in 293F cells) VH: EVKLVESGGGLVKPGGSLKLSCAASGFTFSDYGMAWVRQAPGKGPEWVAFISNLAYSVYYADTETGRFTISREDAKNTLYLEMSSLRSEDTAMYYCARSGLPYAMDYWGQGTSVTVSS VL: DIQMTQTTSSLSASLGDRVTISCRASQDISNYLNWYQQKPDGTVKLLIYYISRLHSGVPSRFSGSGSGTDFSLTISNLEQEDIATYFCQQGRMLPWTFGGGTRLEIKR | 0.785 | 0.575 | 0.992 | 82.1 | 12.6 | 6 | 1.93 | 0.000404 | 209000 | 0.968 | 0.000505 | 521000 | Kd [13]: < 0.001 nM; koff [13]: < 1e-07 s⁻¹; kon [13]: 132000 M⁻¹ s⁻¹; Kd [16]: 5.32 nM; koff [16]: 0.00166 s⁻¹; kon [16]: 312000 M⁻¹ s⁻¹ |
| huD1D5-V9 (antibody, human IgG4 S228P, kappa, V domains shown, humanized IgG4/kappa; cell supernatant on Octet, purified antibody in Biacore, ELISA, FACS and the functional assay; also called hu CTLA4 D1D5-V9; huDID5-V9) VH: EVQLVESGGGLVKPGGSLRLSCAASGFTFSDYGMAWVRQAPGKGPEWVAFISNLAYSVYYADTETGRFTISRDDAKNSLYLQMNSLRAEDTAVYYCARSGLPYAMDYWGQGTTVTVSS VL: DIQMTQSPSSLSASVGDRVTITCRASQDISNYLNWYQQKPGKVPKLLIYYISRLHSGVPSRFSGSGSGTDFTLTISSLQPEDVATYYCQQGRMLPWTFGGGTKVEIKR | 0.642 | 0.516 | – | 27.3 | – | 5.53 | 3.02 | 0.000519 | 172000 | 2.13 | 0.000576 | 271000 | Kd [17]: 4.37 nM; koff [17]: 0.000471 s⁻¹; kon [17]: 108000 M⁻¹ s⁻¹ |
